The subject of assay [1] is array glycans (AcSTn, GcSTn, Tn and others). As to the kind of experiment: Glycan array analysis. The assay is classed as binding. Also noted: key: Group 1: capable of binding AcSTn and GcSTn, if they bind to glycans 5, 6, 23 and 24; Group 2: capable of binding STn as well as some related structures that include an O-linkage to serine or threonine, if they bind to glycans 5, 6, 23, 24, 27 and 31; Group 3: capable of binding STn, but may also bind a broader set of related structures) if they bind glycans 5, 6, 23, 24, 17, 3, 19, 37, 27 and 31; Group 4: capable of binding to both AcSTn and GcSTn as well as the un-sialylated Tn antigen (therefore having broader specificity) if they bind to glycans 5, 6, 23, 24 and 47. The method, then: Optimized glycan arrays are utilized to test antibody affinity and specificity for multiple glycans in a single experiment. Glycan arrays include 71 chemically synthesized and well-defined glycans, most of which are Neu5Ac and Neu5Gc glycan pairs.
300 ml of epoxy blocking buffer is prepared by combining 15 ml of 2 M Tris buffer (pH 8) with 0.9 ml of 16.6 M ethanolamine and 284.1 ml of distilled water. The solution is brought to a final pH of 9.0 with HCl. The solution is filtered using a […] nitrocellulose membrane. The epoxy buffer solution as well as 1 L of distilled water are pre-warmed to 50° C. Glass slides are arranged in a slide holder and quickly submerged in a staining tub with the warmed epoxy blocking buffer. Slides are incubated in the epoxy blocking buffer for 1 hour at 50° C. with periodic shaking to deactivate epoxy binding sites. Next, slides are rinsed and blocked with PBS with 1% OVA at 25° C. for one hour. Serum samples with polyclonal antibodies (1:1000) or purified monoclonal antibodies (1 ug/mL), are diluted in PBS with 1% OVA and added to the glycan array for one hour at 25° C. After extensive washing, binding of antibodies are detected by incubating glycan microarray slides with Cy3-conjugated anti-mouse IgG (Jackson Immunoresearch, West Grove, Pa.) for one hour. Slides are then washed extensively, dried and scanned with a Genepix 4000B scanner (Laser at 100%; gain at 350; 10 μm pixels). Raw data from scanned images are extracted using the Genepix software and analysis of raw data is carried out.
Based on array analysis, antibodies are classified according to array glycan binding profile. Antibodies are classified as “Group 1” antibodies, capable of binding AcSTn and GcSTn, if they bind to glycans 5, 6, 23 and 24. Such antibodies are referred to as Pan-STn antibodies due to their ability to associate with a wider range of STn structures and the portion of STn indicated by the largest ellipse in FIG. 1A. […]

For assay [2], the target named is bovine submaxillary mucin (BSM). As to the kind of experiment: BSM ELISA, periodate-sensitive STn binding. The note with it: periodate-sensitive STn binding curve, 0 to 100 nM. The method, then: For BSM ELISA analysis, antibodies were screened over a concentration range of 0 to 100 nM on bovine submaxillary mucin (BSM) coated wells. A subset of wells were treated with mild periodate solution before antibody introduction to remove the side chain on terminal sialic acid residues (destroying the STn antigen). Optical densities of periodate and non-periodate-treated wells were determined and log transformed then fit to a nonlinear regression model to obtain a dose response curve. Optical density values obtained from periodate-treated wells were subtracted from non-periodate treated wells to obtain a periodate-sensitive STn binding curve and corresponding EC50 values.

B1: hSIA101 (antibody, V domains shown)
VH: EVQLVQSGAEVKKPGASVKVSCKASGYTFTDHAIHWVRQAPGQGLEWMGYFSPGNDDIKYNEKFRGRVTMTADKSSSTAYMELRSLRSDDTAVYFCKRSLSTPYWGQGTLVTVSS
VL: DIVMTQSPDSLAVSLGERATINCKSSQSLLNRGNHKNYLTWYQQKPGQPPKLLIYWASTRESGVPDRFSGSGSGTDFTLTISSLQAEDVAVYYCQNDYTYPYTFGQGTKVEIK
For the molecule B1, the “Array glycan binding profile” value in assay [1] is reported as “Group 1”. This molecule showed an EC50 in assay [2] of 4.2 nM.

Values taken from patent US20230001007A1, “Glycan-Interacting Compounds and Methods of Use” (Seagen Inc., priority 2017, published 2023).
